Measured values as given in paper PMC9723548, “Sulfate adenylyl transferase kinetics and mechanisms of metabolic inhibitors of microbial sulfate respiration” (ISME Communications, 2021).

How the values were obtained:
[1] = biological target: T1, sulfate adenylyl transferase (Sat) / ATP sulfurylase (Oleidesulfovibrio alaskensis, UniProt Q30Z34); test: pyrophosphate accumulation, modified molybdenum blue assay
T1 construct: gene Dde_2265
T1 sequence (Q30Z34 1-427): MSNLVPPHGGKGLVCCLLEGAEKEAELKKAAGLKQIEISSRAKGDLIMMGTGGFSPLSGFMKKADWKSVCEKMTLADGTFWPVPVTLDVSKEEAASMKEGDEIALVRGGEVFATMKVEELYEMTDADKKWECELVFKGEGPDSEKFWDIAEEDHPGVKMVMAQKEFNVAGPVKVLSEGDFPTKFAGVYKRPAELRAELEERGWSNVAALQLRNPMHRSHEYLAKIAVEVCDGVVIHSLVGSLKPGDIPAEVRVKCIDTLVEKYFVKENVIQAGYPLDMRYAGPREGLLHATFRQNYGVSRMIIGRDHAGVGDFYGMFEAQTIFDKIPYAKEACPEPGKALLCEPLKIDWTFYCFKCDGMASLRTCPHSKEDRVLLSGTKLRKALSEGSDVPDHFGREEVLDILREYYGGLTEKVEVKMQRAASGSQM

purified protein [2] = substrate: O=[Se](=O)(O)O; test: purified protein
purified protein [3] = substrate: [O]=[Cr](=[O])([OH])[OH]; test: purified protein; conditions: alternative substrate in place of sulfate; co-substrate ATP

`O=[N+]([O-])O` [NO3^−] was tested, and the Ki [1] was 3600 ± 270 µM.

Molecule `[O-][Cl+2]([O-])O` [ClO3^−] has a Ki [1] of 316 ± 17 µM.

B1: sulfate adenylyl transferase (Sat) / ATP sulfurylase (Oleidesulfovibrio alaskensis G20) (protein)
chain: MSNLVPPHGGKGLVCCLLEGAEKEAELKKAAGLKQIEISSRAKGDLIMMGTGGFSPLSGFMKKADWKSVCEKMTLADGTFWPVPVTLDVSKEEAASMKEGDEIALVRGGEVFATMKVEELYEMTDADKKWECELVFKGEGPDSEKFWDIAEEDHPGVKMVMAQKEFNVAGPVKVLSEGDFPTKFAGVYKRPAELRAELEERGWSNVAALQLRNPMHRSHEYLAKIAVEVCDGVVIHSLVGSLKPGDIPAEVRVKCIDTLVEKYFVKENVIQAGYPLDMRYAGPREGLLHATFRQNYGVSRMIIGRDHAGVGDFYGMFEAQTIFDKIPYAKEACPEPGKALLCEPLKIDWTFYCFKCDGMASLRTCPHSKEDRVLLSGTKLRKALSEGSDVPDHFGREEVLDILREYYGGLTEKVEVKMQRAASGSQM
B1 showed a Km (purified protein [2]) of 1770 ± 550 µM, a kcat/Km (purified protein [2]) of 160 M⁻¹ s⁻¹ and a Km (purified protein [3]) of 793 ± 140 µM. For the same molecule, the kcat (purified protein [3]) was 16 s⁻¹ and the kcat/Km (purified protein [3]) was 20000 M⁻¹ s⁻¹.
